# Experimental data: patent US20130330294A1, “Serum Amyloid A (SAA) Overrides Regulatory T Cells (TREG) Anergy” (The Board of Trustees of the Leland Stanford Junior …, priority 2010, published 2013)
# B1: recombinant human SAA (protein, UniProt P0DJI8 19-122, looked up)
# Serum amyloid A-1 protein: RSFFSFLGEAFDGARDMWRAYSDMREANYIGSDKYFHARGNYDAAKRGPGGAWAAEVITDARENIQRFFGHGAEDSLADQAANEWGRSGKDPNHFRPAGLPEKY
# Columns and labels:
# Treg and Teff [1] = experiment: CFSE-based Treg suppression assay with APC; assay type: cell-based, human
# Protocol: Carboxyfluorescein diacetate succinimidyl ester (CFSE) dilution assay was used for measuring T cell proliferation in suppression assays. Briefly, Treg were labeled with CFSE using Cell Tracer CFSE Cell Proliferation kit (Molecular Probes) at a final concentration of 10 μM, according to manufacturer's instructions. Assays with labeled cells were performed as described for 3H-thymidine-based suppression assays. After 7 days of culture, cells were harvested and dye dilution was analyzed by flow cytometry. Stimulation assays were set up similarly with allogeneic irradiated APC and only one type of CFSE-labeled T cells (either Treg or Teff). For APC fixation, these cells were first re-suspended in PBS+10% FBS+1% paraformaldehyde for […] at 37° C. Fixed cells were pelleted by centrifugation, washed and then cultured in complete media.
# To evaluate effects of plasma on suppression assays and immune cell cultures, frozen plasma samples were thawed at 25° C. and debris were removed with sterile 40 μm filters (BD Biosciences). All plasma samples were tested in duplicates or triplicates. To control for variations in suppressive and proliferative potentials of Treg and Teff, respectively, both HC and SJIA plasma samples were used in parallel suppression assays with the same set of purified cells for each round of experiments. In addition, fold change in 3H-thymidine cpm in assays with plasma compared to those in complete media alone, was computed to analyze the effects of plasma in suppression assays or stimulation assays. In CFSE assays, percentage of proliferating cells (shown by dye dilution) was used to analyze the effects of plasma on cell proliferation. IL-1Ra, neutralizing antibody against IL-6 and TNF-α (R&D System), and recombinant IL-1, IL-6 (Peprotech) were used to evaluate the roles of these cytokines in suppression assays. […] To pharmacologically modulate SOCS3, isolated Treg were cultured with forskolin (Calbiochem) at different concentrations and analyzed for SOCS3 expression at different time points.
# [2] = system: pERK1/2, pAKT, pSTAT3 in Treg and Teff; experiment: Phosphorylation of ERK1/2, AKT and STAT3 in Treg and Teff in suppression assays by FACS; assay type: cell-based, human; settings: assays with SJIA plasma, day 4; IL-1 RA 1 μM, anti-IL-6 1 μg/ml
# Protocol: (§1) Detection of surface markers and intracellular molecules was performed. Antibodies used in these experiments included anti-human RAGE, SOCS3 (Abcam), CD14-FITC, DR-FITC, Foxp3-FITC, Lin (mixture of CD3, CD14, CD16, CD19, CD56)-FITC, CD14-PE, CD25-PE, CD40-PE, CD83-PE, CD127-PE, HVEM-PE, PDL2-PE, IL-1-PE, IL-6-PE, CD3-PerCP, CD4-PerCP, CD19-PerCP, CD25-PerCP, DR-PerCP, Lin-PerCP, CD3-APC, CD4-APC, CD14-APC, CD36-APC, CD86-APC, TLR2-APC, TLR4-APC, PDL1-APC, CCR7-APC, IL-6-APC, Lin-APC (Biolegend), Ki-67 FITC, pSTAT3 Alexa-647, pAKT Alexa-647, pERK1/2 Alexa-647 (BD Biosciences), and FPRL-1-APC(R&D System). Antibodies to mouse proteins used in these experiments included anti-CD25-PE, CD4-PerCP, CD11b-PerCP, CD115-APC, and Foxp3-APC (Biolegend). For in vitro experiments, to assay for expression of different surface and intracellular molecules in a specific cell subset (Treg, Teff or APC) in mixed cell cultures, the relevant subset was labeled with CFSE prior to suppression assays. Cells were pelleted at various time points and underwent standard staining protocols of the manufacturers. For in vivo experiments, cells were harvested from the peritoneal cavity and underwent flow cytometric analysis.
# SOCS3 in Treg = experiment: SOCS3 expression in forskolin-treated Treg by intracellular staining; assay type: cell-based, human; settings: after 24 hour stimulation
# Protocol: To evaluate effects of plasma on suppression assays and immune cell cultures, frozen plasma samples were thawed at 25° C. and debris were removed with sterile 40 μm filters (BD Biosciences). All plasma samples were tested in duplicates or triplicates. To control for variations in suppressive and proliferative potentials of Treg and Teff, respectively, both HC and SJIA plasma samples were used in parallel suppression assays with the same set of purified cells for each round of experiments. In addition, fold change in 3H-thymidine cpm in assays with plasma compared to those in complete media alone, was computed to analyze the effects of plasma in suppression assays or stimulation assays. In CFSE assays, percentage of proliferating cells (shown by dye dilution) was used to analyze the effects of plasma on cell proliferation. IL-1Ra, neutralizing antibody against IL-6 and TNF-α (R&D System), and recombinant IL-1, IL-6 (Peprotech) were used to evaluate the roles of these cytokines in suppression assays. Recombinant SAA (Peprotech) was used at different concentrations in suppression assays in the presence of polymixin (5 μg/ml). […] To pharmacologically modulate SOCS3, isolated Treg were cultured with forskolin (Calbiochem) at different concentrations and analyzed for SOCS3 expression at different time points. […]
# peritoneal Treg and Teff = experiment: In vivo effects of SAA on Treg frequency and proliferation (intraperitoneal injection); set-up: species or system C57B6 mice; settings: 16 hours
# Protocol: as §1, with “C57B6 mice (male, 8 to 10 weeks old) were purchased from Jackson Laboratory. Mice were injected intraperitoneally with recombinant human SAA (Peprotech, 30 μg in 100 μl PBS), purified human serum albumin (Sigma Aldrich, 30 μg in 100 μl PBS), or endotoxin (Sigma Aldrich, 0.25 ng in 100 μl PBS). Animals were sacrificed 16 hours later; peritoneal cells were harvested and stained for surface and intracellular markers to detect Treg frequency and proliferation. In vivo depletion of monocytes was performed with clodronate liposomes (Encapsula). In these experiments, 400 μl of clodronate or empty liposomes were injected intraperitoneally 24 hours before SAA injection. Detection” for “Detection”, “[…],” for “CD127-PE, HVEM-PE, PDL2-PE, IL-1-PE, IL-6-PE,”
# Treg and Teff [3] = experiment: Suppression assay without APC (anti-CD3 and anti-CD28 as T cell stimuli); assay type: cell-based, human; settings: recombinant SAA 25 μg/ml
# Protocol: Standard 3H-thymidine-based suppression assays were performed to analyze Treg function. Autologous Treg and Teff were cultured at 3,750 cells per 50 μl per well in complete media (RPMI+10% FBS+1% L-glutamine) with allogeneic irradiated CD3-depleted peripheral blood mononuclear cells (antigen presenting cells or APC), at 37,500 cells per 50 μl per well. Anti-CD3 antibodies (clone UCHT1, BD Biosciences) were pre-coated on U-bottom 96 well plates at 5 μg/ml for 4 hours at 37° C. before suppression assays. Additional media was added so the final volume in each well was 200 μl. On day 6, cells were pulsed with 1 μCi 3H-thymidine (25 μl) per well and harvested on day 7 with a Tomtec cell harvester. 3H-thymidine incorporation was determined using a 1450 microbeta Wallac Trilux liquid scintillation counter. […] Stimulation assays were set up similarly with allogeneic irradiated APC and only one type of T cell (either Treg or Teff). All assays were performed in triplicates. For suppression assays without APC, anti-CD3 antibodies at 5 μg/ml final concentration (clone UCHT1, BD Biosciences) were plate-bound in U-bottom 96-well plates for 4 hours at 37° C. Soluble anti-CD28 (5 μg/ml, BD Biosciences) was added, followed by Teff (40,000 cells per 50 μl per well) and Treg (40,000 cells per 50 μl per well). […]
# [4] = system: APC, monocytes and B cells; experiment: Secreted and intracellular cytokines in suppression assays, APC, monocyte and B cell cultures; assay type: cell-based, human; settings: 25 μg/ml, polymixin 5 μg/ml, 24 hours
# Protocol: Both suppression assays and APC cultures were set up for supernatant collection. For APC cultures, 50 μl of APC stock solution (750,000 cells per ml) were incubated in a final volume of 200 μl per well in complete media. Plasma samples were used at 35 μl per well. At different time points, supernatants were collected after centrifugation to pellet cells; supernatants representing samples from the same experimental conditions were pooled from 6 wells of 96-well plates and stored at −80° C. until analysis. To detect cytokines in the supernatants, cytometric bead arrays (BD Biosciences) and ELISA (R&D System) were used according to manufacturers' protocols. Similar assays were performed for plasma samples from HC and SJIA subjects.
# Detection of surface markers and intracellular molecules was performed. Antibodies used in these experiments included anti-human RAGE, SOCS3 (Abcam), CD14-FITC, DR-FITC, Foxp3-FITC, Lin (mixture of CD3, CD14, CD16, CD19, CD56)-FITC, CD14-PE, CD25-PE, CD40-PE, CD83-PE, CD127-PE, HVEM-PE, PDL2-PE, IL-1-PE, IL-6-PE, CD3-PerCP, CD4-PerCP, CD19-PerCP, CD25-PerCP, DR-PerCP, Lin-PerCP, CD3-APC, CD4-APC, CD14-APC, CD36-APC, CD86-APC, TLR2-APC, TLR4-APC, PDL1-APC, CCR7-APC, IL-6-APC, Lin-APC (Biolegend), Ki-67 FITC, pSTAT3 Alexa-647, pAKT Alexa-647, pERK1/2 Alexa-647 (BD Biosciences), and FPRL-1-APC(R&D System). […]
# [5] = in the presence of polymixin (5 μg/ml)
molecule,measurement,setting,value
IL-1Ra: IL-1 receptor antagonist (R&D System),inhibition of SJIA plasma-induced Treg proliferation,"Treg and Teff [1]; suppression assays with SJIA plasma, various concentrations, IL-1 Ra 1 μM, antibodies 1 μg/ml",significant inhibition
same,phosphorylated ERK1/2 in Treg with blocking reagent,[2],abrogated the increased expression
same,phosphorylation of AKT in Treg with blocking reagent,[2],inhibited phosphorylation of AKT
C=C[C@@]1(C)CC(=O)[C@]2(O)[C@@]3(C)[C@@H](O)CCC(C)(C)[C@@H]3[C@H](O)[C@H](OC(C)=O)[C@@]2(C)O1 [forskolin],optimal dosing for SOCS3 induction in Treg,SOCS3 in Treg,100 µM
B1,Treg proliferation in suppression assays,Treg and Teff [1]; [5],selectively enhance proliferation of Treg
same,Treg suppressive activity,Treg and Teff [1]; [5],without reducing their suppressive activity
same,Treg abundance in the peritoneal cavity,"peritoneal Treg and Teff; 30 μg i.p. in 100 μl PBS, vs human serum albumin or endotoxin",significant increase in Treg abundance
same,Teff proliferation in vivo,peritoneal Treg and Teff; 30 μg i.p.,did not enhance Teff proliferation
same,percentage of peritoneal Treg expressing Ki-67,"peritoneal Treg and Teff; 30 μg i.p., vs controls",significantly higher percentage
same,Treg proliferation in the absence of APC,Treg and Teff [3],failed to induce Treg proliferation
same,IL-1 production by monocytes compared with B cells,[4],significantly higher levels
same,IL-6 production by monocytes compared with B cells,[4],significantly higher levels
